From PMC4547098 (eLife, 2015) come the findings set out here.

Data set [1] deals with the molecule itself. The data set can be described thus: crystal structure; Pikp-HMA alone; 0.1 M MIB buffer pH 5.0, 25% PEG 1500; dimer in the crystal.
Data set [2] deals with AVR-PikD with non-cleavable C-terminal 6xHis tag (pOPINE) (Magnaporthe oryzae, UniProt C4B8B8 22-113). Briefly: SPR; Biacore T200, 25°C, multi-cycle kinetics; […]; 50 mM HEPES pH 7.5, 150 mM NaCl, 0.1% Tween 20; […]. The note with it: both partners purified. Background: In SPR one partner is held on a chip, and binding of the other changes the refractive index at the surface.

One may read the stoichiometry N as a count of units in the complex or per binding partner. A word on the Kd: it is the equilibrium constant for the complex coming apart. A high value points to lower affinity.

B1: Pikp-HMA domain made in Sf9 cells for crystallisation (domain or fragment, rice (Oryza sativa), UniProt E9KPB5 186-258, looked up)
chain: GLKQKIVIKVAMEGNNCRSKAMALVASTGGVDSVALVGDLRDKIEVVGYGIDPIKLISALRKKVGDAELLQVS
notes: also called Pikp1-HMA; not shown: 6xHis+SUMO, N-terminal, cleaved
On to B1, for which the “stoichiometry N” value in data set [1] was 2.

B2: Pikp-HMA domain (HMA integrated domain of the rice NLR Pikp-1) (domain or fragment)
chain: GLKQKIVIKVAMEGNNCRSKAMALVASTGGVDSVALVGDLRDKIEVVGYGIDPIKLISALRKKVGDAELLQVS
notes: also called Pikp1-HMA; Pikp-1 HMA; not shown: 6xHis+SUMO, N-terminal, cleaved
As to B2, binding in data set [2] was characterised by a dissociation constant (Kd) of 31 ± 2 nM.
